Source: the supplement of paper PMC10724198
± gives the standard deviation of the averaged measurements.

test system: Saccharomyces cerevisiae; test: protein stability index of tFT-peptide fusion (C-terminal peptide) (PSI (0-1 scale)); higher = more stable (slower turnover); conditions: genetic background: wild type; temperature: 30 C
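Further: PSI is a weighted mean of sequencing reads over stability bins, variants kept only with over 10 reads, mCherry proximal and sfGFP distal, peptide attached via GGGS linker.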

In order of falling protein stability index:
1. ILSWSGLSTGLE  0.876 ± 0.065
2. YYIITRWPNTTR  0.847 ± 0.2
3. KIQGGKQKTVDD  0.824 ± 0.25
4. PRLFPSSPLPFN  0.822 ± 0.018
5. RSRGSTKLKNLI  0.817 ± 0.056
6. LRCRLFIWDGVK  0.809 ± 0.038
7. SIRPPPPSSFPA  0.806 ± 0.069
8. AHWYPAGQCSRL  0.804 ± 0.13
9. GEWVNLGFGFLF  0.781 ± 0.11
10. PRGVLSCPVFAP  0.776 ± 0.029
11. YTRGVENTDMAP  0.768 ± 0.022
12. PRALCPSSPPSR  0.764 ± 0.12
13. SPLPPSPPPLLF  0.762 ± 0.17
14. PSFPPLPLSTPP  0.762 ± 0.063
15. KKKKKKTNKKKE  0.758 ± 0.065
16. LPPAIPSTPPTP  0.756 ± 0.0087
17. RRVDVRKGRLTP  0.753 ± 0.096
18. VGLPPVAGLVTG  0.751 ± 0.073
19. RSWISGVRPSYP  0.75 ± 0.036
20. PPPPPRPPPSSP  0.746 ± 0.058
21. SVAQHLRNGNMC  0.745 ± 0.13
22. GLNTKAQSRIPM  0.742 ± 0.018
23. PGSRRAQPVTSG  0.741 ± 0.022
24. SQMGRGRQRGDR  0.741 ± 0.024
25. VHVSRHGSSIAF  0.74 ± 0.008
26. DQVDGLFTCSAR  0.739 ± 0.027
27. AWCLGVGESRPH  0.739 ± 0.035
28. AVGFVVHNSLKK  0.739 ± 0.017
29. LDEQKLKLPPVK  0.736 ± 0.024
30. PVSLPPSLRRPS  0.736 ± 0.034
31. PLRMFRGGISWR  0.734 ± 0.037
32. SCRVVSGLAIWW  0.734 ± 0.15
33. RRSASRQFLLNP  0.73264 ± 0.00024
34. LSSGSCLESPFT  0.732 ± 0.08
35. PLPPLPPPLSPP  0.732 ± 0.067
36. HLFSLGSCLSDP  0.731 ± 0.12
37. HSYSPRSLLVDP  0.727 ± 0.039
38. PSSVRPFDPLLC  0.724 ± 0.063
39. PLRPPAPRHSPP  0.723 ± 0.013
40. FVWAGVGCWSEA  0.723 ± 0.023
41. TGWWSPCRLDSS  0.722 ± 0.024
42. GDLVRNARSLII  0.72 ± 0.014
43. SPLPLASPFGFP  0.719 ± 0.033
44. GKVCGRAEYPQT  0.719 ± 0.035
45. TLTLVIPTSRDQ  0.717 ± 0.064
46. SPPPPILPCKPL  0.716 ± 0.031
47. VSTENDGCGTPR  0.712 ± 0.022
48. PRPPPPCPPPSL  0.71 ± 0.083
49. CLYVGSRPPRSA  0.71 ± 0.031
50. ATHEEGRVRCGV  0.709 ± 0.078
51. ARFYPPLPTDSL  0.708 ± 0.056
52. DSMLACIHPSPI  0.708 ± 0.0064
53. IEIGTEEGKCTT  0.707 ± 0.053
54. GEDADLVPILLG  0.707 ± 0.044
55. LPCTTPLLFTPV  0.706 ± 0.21
56. VSGGGAPRSVWR  0.706 ± 0.0083
57. TKIPVLLKNSAN  0.704 ± 0.062
58. PSPQPTRPPGPL  0.704 ± 0.039
59. AKDSTAVVRLGT  0.703 ± 0.029
60. MGGDATSLKRLV  0.703 ± 0.0091
61. HQVSLVLGGYLL  0.702 ± 0.0099
62. KKKNQLSKVTKR  0.702 ± 0.031
63. GAGGSAGARSAE  0.702 ± 0.03
64. LVAAEARIGFAV  0.7 ± 0.012
65. PPHHPPPTLFPA  0.698 ± 0.076
66. DGVRGWVGVAGD  0.698 ± 0.039
67. WYIEYLNYTTEQ  0.697 ± 0.0089
68. GAGRVRAPGRWP  0.6965 ± 0.0035
69. YPPRLPSILPFP  0.696 ± 0.046
70. ALPRFPATSFPT  0.695 ± 0.04
71. RYLDPPLPLPRT  0.6921 ± 0.0046
72. PISPPSFRSPTP  0.691 ± 0.029
73. PAPALPPPSSPP  0.69 ± 0.0095
74. SESKCRPKVSQP  0.689 ± 0.065
75. PLSDDPRRPLST  0.688 ± 0.069
76. GGGGGLVVFGWK  0.687 ± 0.007
77. WVCRVWGGWLRG  0.686 ± 0.044
78. ARRGATRGHAHV  0.684 ± 0.046
79. VPRAVACDCVLL  0.6845 ± 0.0051
80. GREGKHLGAPPS  0.68 ± 0.032
81. SAEKKRAKCERR  0.68 ± 0.01
82. HSRPAAPCRSPL  0.679 ± 0.013
83. SHPPPALVPLFK  0.678 ± 0.016
84. IPLPPHLTPPST  0.677 ± 0.086
85. PSSPLLGPPPPD  0.677 ± 0.01
86. HPSARLPENRTP  0.677 ± 0.038
87. LPCGRGQLVGSQ  0.677 ± 0.032
88. SGSSRVGWLEGW  0.676 ± 0.022
89. PHLPPPPDPPRP  0.676 ± 0.009
90. IKRLNNEKSSKA  0.676 ± 0.035
91. NMYQQIESEYSK  0.676 ± 0.045
92. GGGGRGVGRGWG  0.675 ± 0.0046
93. DLSPPLPPPAHP  0.674 ± 0.044
94. GGVYVASQGTFV  0.673 ± 0.021
95. SSSPFVSDFLTL  0.673 ± 0.042
96. PSPTRPPAYPRS  0.672 ± 0.11
97. PALPPPSLPPPP  0.6718 ± 0.0023
98. GGPTCSSSCDPV  0.67 ± 0.038
99. CDDGLIVNKVDS  0.665 ± 0.0092
100. RYYKKQNWKIGL  0.663 ± 0.13
101. RFMAFGDKEILR  0.662 ± 0.033
102. VSRQHLPAVLHL  0.661 ± 0.024
103. IPDRSLFPWTGR  0.661 ± 0.012
104. FGNFCCRWSLGP  0.66 ± 0.12
105. TNIITRHNKKDK  0.657 ± 0.078
106. KKKGDKVGTKEQ  0.657 ± 0.048
107. LSFLYCSDNKVA  0.6562 ± 0.006
108. TMVAVTSILGGL  0.655 ± 0.084
109. RVRGEHKLIGRA  0.652 ± 0.034
110. GGCVWWSWGRGG  0.652 ± 0.016
111. PPPPSPPATPAP  0.652 ± 0.015
112. RVANCGDGSIAV  0.652 ± 0.053
113. IKIKKKKKKRHR  0.651 ± 0.059
114. LPLIRQLPNPPP  0.648 ± 0.031
115. RKKKRKKKKTER  0.647 ± 0.041
116. DFAGVCRWSLRG  0.6446 ± 0.0025
117. GRQLNDSISTLK  0.642 ± 0.015
118. VDVPAGPGGGAC  0.641 ± 0.077
119. RRRMVYPLPPTL  0.641 ± 0.052
120. FPGVRNGSRFPP  0.637 ± 0.0067
121. LPPRTHSPLSSP  0.636 ± 0.11
122. PPGLPPGPARPP  0.635 ± 0.036
123. GCGEGNVRPCEL  0.6347 ± 0.0011
124. SPSRPILRPRVV  0.635 ± 0.02
125. KKNSTKKKKESW  0.633 ± 0.029
126. PPPSYSPSLSLL  0.63132 ± 0.00041
127. PLLIPPPPTYPP  0.63 ± 0.038
128. GEVILERKRRKI  0.629 ± 0.057
129. GLSVSGLWGVFG  0.629 ± 0.2
130. LESLPSPLHLPM  0.629 ± 0.026
131. APVVSFTAPLAF  0.619 ± 0.1
132. DKKGRIKIKNRQ  0.618 ± 0.026
133. ITIVVATRPPGA  0.617 ± 0.013
134. FLFPTLSPITGC  0.612 ± 0.05
135. RGVCVVGGCWLV  0.609 ± 0.016
136. CVTFHKGRVFLR  0.609 ± 0.031
137. LLTGPYRCIPLV  0.608 ± 0.039
138. CSVDSRLSMLVL  0.605 ± 0.044
139. CRRSSRIKHILL  0.603 ± 0.029
140. LFGFFLECCFCT  0.599 ± 0.052
141. PSLPPRPQLVHS  0.596 ± 0.017
142. GSVGWRGGEGRW  0.59 ± 0.11
143. PPSTPPRPDSPP  0.578 ± 0.084
144. TKIQFTITLIGK  0.578 ± 0.028
145. SPCTSPARLKLP  0.559 ± 0.063
146. QRVIELVLISNM  0.539 ± 0.043
